From US20170334979A1 (published 2017) come the findings set out here.

B1: cynomolgus monkey serum albumin (other)
chain: DTHKSEVAHRFKDLGEEHFKGLVLVAFSQYLQQCPFEEHVKLVNEVTEFAKTCVADESAENCDKSLHTLFGDKLCTVATLRETYGEMADCCAKQEPERNECFLQHKDDNPNLPPLVRPEVDVMCTAFHDNEATFLKKYLYEVARRHPYFYAPELLFFAARYKAAFAECCQAADKAACLLPKLDELRDEGKASSAKQRLKCASLQKFGDRAFKAWAVARLSQKFPKAEFAEVSKLVTDLTKVHTECCHGDLLECADDRADLAKYMCENQDSISSKLKECCDKPLLEKSHCLAEVENDEMPADLPSLAADYVESKDVCKNYAEAKDVFLGMFLYEYARRHPDYSVMLLLRLAKAYEATLEKCCAAADPHECYAKVFDEFQPLVEEPQNLVKQNCELFEQLGEYKFQNALLVRYTKKVPQVSTPTLVEVSRNLGKVGAKCCKLPEAKRMPCAEDYLSVVLNRLCVLHEKTPVSEKVTKCCTESLVNRRPCFSALELDEAYVPKAFNAETFTFHADMCTLSEKEKQVKKQTALVELVKHKPKATKEQLKGVMDNFAAFVEKCCKADDKEACFAEEGPKFVAASQAALA

What all share (test): purified sdAb binding
The target of test [1] is 10GE.
In test [2] the target is human serum albumin (human, UniProt P02768 25-609).
Test [3] deals with B1.
Test [4] deals with mouse serum albumin (mouse, UniProt P07724 25-608).
mouse serum albumin, sequence (P07724 25-608): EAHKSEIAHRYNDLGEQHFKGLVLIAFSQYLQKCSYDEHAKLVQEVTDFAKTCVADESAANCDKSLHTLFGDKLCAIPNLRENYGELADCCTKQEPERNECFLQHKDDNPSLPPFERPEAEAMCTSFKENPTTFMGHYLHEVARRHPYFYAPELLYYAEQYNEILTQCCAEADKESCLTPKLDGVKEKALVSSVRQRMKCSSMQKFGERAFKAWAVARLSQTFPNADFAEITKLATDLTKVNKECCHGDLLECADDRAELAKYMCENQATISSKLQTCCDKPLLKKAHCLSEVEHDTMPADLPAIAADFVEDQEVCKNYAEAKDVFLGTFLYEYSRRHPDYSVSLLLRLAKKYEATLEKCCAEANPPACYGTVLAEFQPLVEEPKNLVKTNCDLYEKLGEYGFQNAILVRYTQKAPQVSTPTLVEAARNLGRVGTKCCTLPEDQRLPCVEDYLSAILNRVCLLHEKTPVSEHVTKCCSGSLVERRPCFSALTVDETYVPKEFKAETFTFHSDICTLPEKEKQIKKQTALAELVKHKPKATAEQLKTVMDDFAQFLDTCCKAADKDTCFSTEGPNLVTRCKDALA

Usually Kd stands for the constant that tells how readily two partners part at equilibrium. As to B1, the equilibrium dissociation constant (Kd) in test [1] was found to be 1.6 nM.

B2: 7A (protein)
chain: EVQLVESGGGLVQPGNSLRLSCAASGFTFSKFGMSWVRQAPGKGLEWVSSISGSGADTLYADSLKGRFTISRDNAKTTLYLQMNSLRPEDTAVYYCTIGGSLSKSSQGTLVTVSS
Consider B2, for which the Kd in test [2] turned out to be 1.9 nM; in test [3] it was 1.7 nM; in test [4], 12.3 nM.
